According to patent US20030100060A1:
Residue numbers refer to the chain shown, from its start.

Experiments:
[1] = molecular target: Inactivated Venezuelan equine encephalitis (VEE) whole virus antigen, strain TC-83 (Venezuelan equine encephalitis virus, strain TC-83) (UniProt P05674); assay: ELISA of whole cell lysates on VEE antigen (FIG. 10)
[2] = molecular target: Inactivated Venezuelan equine encephalitis (VEE) whole virus antigen, strain TC-83 (Venezuelan equine encephalitis virus, strain TC-83) (UniProt P05674); assay: ELISA, […], in triplicate, […]
[3] = molecular target: Inactivated Venezuelan equine encephalitis (VEE) whole virus antigen, strain TC-83 (Venezuelan equine encephalitis virus, strain TC-83) (UniProt P05674); assay: ELISA, HB2151 whole cell lysate, wells with and without VEE whole virus antigen
[4] = molecular target: Inactivated Venezuelan equine encephalitis (VEE) whole virus antigen, strain TC-83 (Venezuelan equine encephalitis virus, strain TC-83) (UniProt P05674)
[5] = molecular target: Inactivated Venezuelan equine encephalitis (VEE) whole virus antigen, strain TC-83 (Venezuelan equine encephalitis virus, strain TC-83) (UniProt P05674); remark: listed apart in the source

Sequence of UniProt P05674 (P05674 335-757 limits assumed): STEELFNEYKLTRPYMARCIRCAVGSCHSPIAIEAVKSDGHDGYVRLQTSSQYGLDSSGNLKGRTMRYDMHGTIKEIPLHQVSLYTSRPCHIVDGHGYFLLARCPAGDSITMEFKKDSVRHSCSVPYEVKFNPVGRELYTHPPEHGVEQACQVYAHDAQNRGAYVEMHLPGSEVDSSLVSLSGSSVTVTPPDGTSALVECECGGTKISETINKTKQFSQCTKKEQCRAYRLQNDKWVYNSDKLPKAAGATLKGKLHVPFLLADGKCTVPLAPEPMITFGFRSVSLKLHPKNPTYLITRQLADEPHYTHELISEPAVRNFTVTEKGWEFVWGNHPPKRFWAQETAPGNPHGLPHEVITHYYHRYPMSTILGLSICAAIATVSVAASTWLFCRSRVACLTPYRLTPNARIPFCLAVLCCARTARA

B1: MA116-15 ScFv antibody (mutagenized, repaired A116) (scFv)
scFv: MAQVQLQESGPELVKPGASVKISCKASGYTFTDYHVHWVKGKPGQGLEWIGMTYPGFDNTNYSETFKGKATLTVDTSSNTVYMQLSSLTSEDTAVYFCARGVGLDYWGQGTTVTVSSGGGGSGGGGSGGGGSDIELTQSPNSLSTSIGDRIRITCKASQDVDTAVGWYQQRPGQSPKLLIFWSSTRHTGVPDRFTGSGSGTDFTLTISNVQSEDLADYFCHQYSSYPFTFGSGTKLEIKRAAAGAPVPYPDPLEPRAA
fold ELISA reactivity against the parental A116 clone [1]: > 4 fold
fold ELISA reactivity against the original A116 clone [2]: 4 fold
fold retention, with VEE antigen over without [3]: > 2.5 fold

B2: MA116-4 ScFv antibody (scFv)
scFv: B1 scFv with D133A, I134S, E135S, L136S, T137L, Q138S, S139L, P140S, E213D
fold retention, with VEE antigen over without [3]: > 2.5 fold

B3: MA116-6 ScFv antibody (scFv)
scFv: MAQVQLQESGPELVKPGASVKISCKASGYTFTDYHVHWVKGKPGQGLEWIGMTYPGFDDTNYSETFKGKATLTVDTSSNTVYMQLSSLTSEDTAVYFCARGVGLDYWGQGTTVTVSSGGGGSGGGGSGGGGSDSSSLVSKFVSTSIGDRIRITCKASQDVDTAVGWYQQRPGQSPKLLIFWSSTRHTGVPDRFTGSGSGTDFTLTISNVQSEDLADYFCHQYSSYPFTFGSGTKLEIKRAAAGAPVPYPDPLEPRAA
fold retention, with VEE antigen over without [3]: > 2.5 fold

B4: A116 ScFv antibody (recombinant single chain variable fragment cloned from hybridoma 1A4A1) (scFv)
scFv: B3 scFv with D59N, S77F, N79T, A94V, Y225H
fold absorbance over the HB2151 negative control lysate [4]: 4 fold
fold absorbance, wells with VEE antigen over wells without [5]: > 2 fold
